Target: T1, Nfluc416-WASP (human, UniProt P42768 220-288)
T1 sequence (looked up): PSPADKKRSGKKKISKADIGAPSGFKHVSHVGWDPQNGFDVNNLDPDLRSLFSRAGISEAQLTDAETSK
Test: split reporter (BiFC, NanoBiT); bimolecular luminescence complementation (split firefly luciferase) in living HEK 293 cells, 24 h after transient cotransfection of the pair (50 ng/well) with pRL-tk; D-luciferin 150 ug/ml; IVIS CCD camera; ratio FL at 600 nm to RL at 500 nm; wild-type pairs also with co-expressed GEF or GAP catalytic domains
Conditions: partners not purified

B1: Cfluc398-CDC42(G12V) (natural protein)
chain: not shown
  luminescence signal, fold of the active mutant over the wild type: 2.77 fold
  reconstituted luminescence (FL/RL), fold over CDC42 F37A: 14.3 fold
  reconstituted luminescence (FL/RL), fold over CDC42 T17N: 5.6 fold
  reconstituted luminescence (FL/RL), fold over CDC42 WT: 2.7 fold

Reference: paper PMC3627919, “Novel Split-Luciferase-Based Genetically Encoded Biosensors for Noninvasive Visualization of Rho GTPases” (PLoS ONE, 2013)
